Results on one molecule are retold here after patent US20140322233A1.

For assay [1], the target named is T1, human guanylyl cyclase C (GCC), full length (human), P25092. Description: whole cell binding of radiolabeled ST-toxin, HT-29-GCC#2/#5 cells.
Assay [2] concerns the target T1, human guanylyl cyclase C (GCC), full …. The experiment in a line: whole cell binding of radiolabeled ST-toxin, T84 cells (endogenous GCC).
Assay [3] concerns the target human GCC, full length with myc tag (293-GCC#2 cells) (human), P25092. The experiment in a line: whole cell binding of radiolabeled ST-toxin, 293-GCC cells.

T1 sequence (P25092 24-1073 limits assumed): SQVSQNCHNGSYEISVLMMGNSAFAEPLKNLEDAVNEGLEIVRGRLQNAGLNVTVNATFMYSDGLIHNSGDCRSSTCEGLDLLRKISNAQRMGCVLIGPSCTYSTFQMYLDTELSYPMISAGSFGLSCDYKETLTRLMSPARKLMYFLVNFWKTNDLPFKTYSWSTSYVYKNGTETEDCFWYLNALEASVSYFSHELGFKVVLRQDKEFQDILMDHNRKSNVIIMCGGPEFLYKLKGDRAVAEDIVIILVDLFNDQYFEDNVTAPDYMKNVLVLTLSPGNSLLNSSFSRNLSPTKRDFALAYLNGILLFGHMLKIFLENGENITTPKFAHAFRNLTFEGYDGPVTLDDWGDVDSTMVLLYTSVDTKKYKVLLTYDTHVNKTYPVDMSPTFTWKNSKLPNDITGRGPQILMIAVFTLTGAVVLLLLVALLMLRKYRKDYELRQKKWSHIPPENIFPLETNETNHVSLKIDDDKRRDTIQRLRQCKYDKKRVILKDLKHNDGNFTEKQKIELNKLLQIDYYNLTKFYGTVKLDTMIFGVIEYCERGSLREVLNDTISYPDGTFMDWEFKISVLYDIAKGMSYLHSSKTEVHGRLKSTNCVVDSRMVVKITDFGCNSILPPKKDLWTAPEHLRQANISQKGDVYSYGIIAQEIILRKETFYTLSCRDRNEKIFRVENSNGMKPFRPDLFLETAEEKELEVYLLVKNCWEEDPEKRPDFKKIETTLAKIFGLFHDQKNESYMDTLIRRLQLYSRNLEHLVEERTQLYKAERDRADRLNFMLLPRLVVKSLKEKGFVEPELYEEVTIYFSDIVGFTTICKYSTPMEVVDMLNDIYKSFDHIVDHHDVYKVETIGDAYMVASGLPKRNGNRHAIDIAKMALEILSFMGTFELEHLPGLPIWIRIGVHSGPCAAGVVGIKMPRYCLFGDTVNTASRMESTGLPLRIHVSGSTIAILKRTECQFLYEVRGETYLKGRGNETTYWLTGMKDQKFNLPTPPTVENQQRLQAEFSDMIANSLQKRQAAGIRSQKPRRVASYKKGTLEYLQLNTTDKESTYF
Chain of human GCC, full length with myc tag (293-GCC#2 cells) (human), P25092 (P25092 24-1073): as the sequence (P25092 24-1073 limits assumed) above

On to NTFYCCELCCNPACAGCY (modifications not checked) [heat-stable enterotoxin (ST) peptide], for which the Whole cell binding assay (receptor/cell) (receptor/cell) in assay [1] came out at 100000; in assay [2] it was 300000; in assay [3], 600000.
